Among the data in patent publication EP4810519A2 are loss of CD3 binding values, retold here.

Test [1] concerns the target human CD3 (human) (UniProt P07766). Put plainly: Biacore; glofitamab formulations F1, F3 and F4 after storage at 40°C, relative to initial. In general terms: SPR reads the build-up and loss of mass on a sensor chip optically.
Test [2] has the same target. The test is described as follows: Biacore; glofitamab formulations F2 and F5 after storage at 40°C, relative to initial.

Sequence of UniProt P07766 (P07766 23-126): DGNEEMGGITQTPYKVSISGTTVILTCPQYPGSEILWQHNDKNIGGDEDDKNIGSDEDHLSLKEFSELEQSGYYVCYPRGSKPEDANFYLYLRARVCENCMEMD

Consider glofitamab (bispecific antibody), for which the loss of CD3 binding was 10 to 20% with human CD3 (human) [1] and < 50% with human CD3 (human) [2].
